Data: patent US20240083999A1 (published 2024)
Like-named read-outs stand apart in the source and are kept apart here. Values belong to the binder of their own block, whether it stands above or below them.

Key:
[1] = target: T1, human interleukin 6 (hIL-6) (UniProt P05231 30-212); assay: ELISA
[2] = target: T1, human interleukin 6 (hIL-6); assay: ELISA; remark: listed apart in the source

T1 sequence (P05231 30-212): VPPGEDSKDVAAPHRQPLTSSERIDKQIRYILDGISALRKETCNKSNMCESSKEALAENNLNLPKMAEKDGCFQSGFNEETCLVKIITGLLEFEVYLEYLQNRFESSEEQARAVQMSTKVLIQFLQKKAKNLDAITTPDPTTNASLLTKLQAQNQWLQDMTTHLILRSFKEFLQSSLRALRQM

B1: hIL-6-binding VHH JYK-F12 (Trx/JYK-F12/E) (VHH)
VHH: QVQLAETGGGSVQAGGSLTLSCAASGRTFSSRAMGWFRQAPGKEREFVAVISWTGSPYYTDSVKGRFTISRDDAKNTVYLQMNSLKPEDTAVYYCAATSEHVMLVVTTRGGYDYWGQGTQVTVSS
EC50 [1]: 14400 pM

B3: JYK-D12/JYK-D12 homodimer (VHH)
chain: QVQLVESGGGLVQPGGSLGLSCAASGFTLAYYGIGWFRQAPGKEREGVACISSSDLSTYYADSVKGRFTISRDNAKDTVYLQMNSLKPEDTAVYYCAAGTWDLKFGYSRSNCVRSYEYDYWGQGTQVTVSSGGGGSGGGGSGGGGSQVQLVESGGGLVQPGGSLGLSCAASGFTLAYYGIGWFRQAPGKEREGVACISSSDLSTYYADSVKGRFTISRDNAKDTVYLQMNSLKPEDTAVYYCAAGTWDLKFGYSRSNCVRSYEYDYWGQGTQVTVSS
EC50 [2]: 84.2 pM

B4: hIL-6-binding VHH JYK-A9 (Trx/JYK-A9/E) (VHH)
VHH: QVQLVESGGGLVQAGDSLTLSCAASGRPFSSFAMGWFRQAPGKEREFVAAITWSRGTTHYADSVKGRFTISGDNAKNTVFLQMNSLKPEDTAVYYCAAADGWKVVSTASPAYDYWGQGTQVTVSS
EC50 [1]: 27700 pM

B6: hIL-6-binding VHH JYK-D12 (Trx/JYK-D12/E) (VHH)
VHH: QLQLVESGGGLVQPGGSLGLSCAASGFTLAYYGIGWFRQAPGKEREGVACISSSDLSTYYADSVKGRFTISRDNAKDTVYLQMNSLKPEDTAVYYCAAGTWDLKFGYSRSNCVRSYEYDYWGQGTQVTVSS
EC50 [1]: 324 pM

More lines, in order of falling EC50 [1], values ahead:

EC50 [1]: 811 pM
B2: hIL-6-binding VHH JYK-H9 (Trx/JYK-H9/E) (VHH)
VHH: QLQLVETGGGLVQPGGSLRLSCAASGFTLDYYAIGWFRQAPGKEREGVSCLSSSDRSTYYVDSVKGRFTISRDDDKNTAYLQMNSLKPEDTATYYCAAGTWDLKWGYNISACVGSYEYDYWGQGTQVTVSS

EC50 [1]: 795 pM
B5: hIL-6-binding VHH JYK-A1 (Trx/JYK-A1/E) (VHH)
VHH: QLQLAETGGGLVQPGGSLRLSCAASGFTLDYYAVGWFRQAPGKEREGISCISSSDLKTYYADSVKGRFTISRDYAKSTVSLQMNSLKPEDTGVYYCAAGTWDLKFGYNISACVGSYEYDYWDQGTQVTVSS
